Consider 4 molecules from EP3623383A1 (Deutsches Krebsforschungszentrum, Stiftung des öffentlichen …, dated 2020).

T1: His tagged, recombinant FLT3 protein (Sino Biologicals) (human, UniProt P36888 27-541, limits assumed)
T1 construct: also called soluble recombinant FLT3 protein; not shown: His tag
T1 sequence (looked up): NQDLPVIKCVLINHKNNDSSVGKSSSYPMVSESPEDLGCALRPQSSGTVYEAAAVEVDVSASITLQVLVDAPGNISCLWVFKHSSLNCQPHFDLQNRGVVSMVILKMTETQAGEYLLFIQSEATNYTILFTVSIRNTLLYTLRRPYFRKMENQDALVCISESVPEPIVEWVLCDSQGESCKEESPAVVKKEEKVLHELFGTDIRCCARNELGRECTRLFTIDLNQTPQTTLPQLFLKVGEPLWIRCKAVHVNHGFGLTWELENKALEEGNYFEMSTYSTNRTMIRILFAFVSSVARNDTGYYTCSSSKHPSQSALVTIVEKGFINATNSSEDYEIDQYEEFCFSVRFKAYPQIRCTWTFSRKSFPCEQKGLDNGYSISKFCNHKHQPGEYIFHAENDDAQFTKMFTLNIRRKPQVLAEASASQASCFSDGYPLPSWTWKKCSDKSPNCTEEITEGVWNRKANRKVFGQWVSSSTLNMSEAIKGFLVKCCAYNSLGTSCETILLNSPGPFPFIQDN

B1: V2-V6 (CC-2 variant 2, bispecific FLT3xCD3 IgGsc antibody) (bispecific antibody)
heavy: QVQLVQSGAEVKKPGGSLRLSCAASGYTFTSYWMHWVRQAPGQGLEWIGEIDPSDSYTDYAQKFKDRVTISRDTSKNTLYLQLSSLRAEDTAVYYCARAITTTPFDFWGQGTLVTVSSASTKGPSVFPLAPSSKSTSGGTAALGCLVKDYFPEPVTVSWNSGALTSGVHTFPAVLQSSGLYSLSSVVTVPSSSLGTQTYICNVNHKPSNTKVDKKVEPKSCDKTHTCPPCPAPPVAGPSVFLFPPKPKDTLMISRTPEVTCVVVGVSHEDPEVKFNWYVDGVEVHNAKTKPREEQYNSTYRVVSVLTVLHQDWLNGKEYKCKVSNKQLPSPIEKTISKAKGQPREPQVYTLPPSRDELTKNQVSLTCLVKGFYPSDIAVEWESNGQPENNYKTTPPVLDSDGSFFLYSKLTVDKSRWQQGNVFSCSVMHEALHNHYTQKSLSLSPGKSGDIQMTQSPSSLSASVGDRVTITCRASQDIRNYLNWYQQKPGKAPKLLIYYTSRLESGVPSRFSGSGSGTDYTLTISSLQPEDFATYYCQQGNTLPWTFGQGTKVEIKGGGGSGGGGSGGGGSEVQLVESGGGLVQPGGSLRLSCAASGYSFTGYTMNWVRQAPGKGLEWVALINPYKGVSTYNQKFKDRFTISVDKSKNTAYLQMNSLRAEDTAVYYCARSGYYGDSDWYFDVWGQGTLVTVSS
light: EIVMTQSPATLSVSPGERATLSCRASQSISNNLHWYQQKPGQAPRLLIKYASQSISGIPARFSGSGSGTEFTLTISSLQSEDFAVYFCQQSNTWPYTFGGGTKLEIKTVAAPSVFIFPPSDEQLKSGTASVVCLLNNFYPREAKVQWKVDNALQSGNSQESVTEQDSKDSTYSLSSTLTLSKADYEKHKVYACEVTHQGLSSPVTKSFNRGEC
notes: IgGsc format, Fc-attenuated; also called Version 2; Humanized 4G8 FLT3 variable region Variant 2 with V6 CD3 scFv
B2: V5-V6 (CC-2 variant 5, bispecific FLT3xCD3 IgGsc antibody) (bispecific antibody)
heavy: B1 heavy with T58K, A61N
light: B1 light
notes: IgGsc format, Fc-attenuated; also called Version 5; Humanized 4G8 FLT3 variable region Variant 5 with V6 CD3 scFv
B3: V1-V6 (CC-2 variant 1, bispecific FLT3xCD3 IgGsc antibody) (bispecific antibody)
heavy: B1 heavy
light: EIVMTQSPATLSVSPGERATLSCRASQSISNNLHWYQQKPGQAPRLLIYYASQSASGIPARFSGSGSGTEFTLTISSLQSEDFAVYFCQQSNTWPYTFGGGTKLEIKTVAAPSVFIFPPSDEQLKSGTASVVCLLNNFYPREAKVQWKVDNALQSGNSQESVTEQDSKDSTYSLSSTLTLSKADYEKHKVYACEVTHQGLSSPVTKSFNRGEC
notes: also called Version 1; Humanized 4G8 FLT3 variable region Variant 1 with V6 CD3 scFv
B4: V3-V6 (CC-2 variant 3, bispecific FLT3xCD3 IgGsc antibody) (bispecific antibody)
heavy: QVQLVQSGAEVKKPGASVKVSCKASGYTFTSYWMHWVRQAPGQGLEWIGEIDPSDSYKDYNQKFKDRVTMTRDTSTSTVYMELSSLRSEDTAVYYCARAITTTPFDFWGQGTTVTVSSASTKGPSVFPLAPSSKSTSGGTAALGCLVKDYFPEPVTVSWNSGALTSGVHTFPAVLQSSGLYSLSSVVTVPSSSLGTQTYICNVNHKPSNTKVDKKVEPKSCDKTHTCPPCPAPPVAGPSVFLFPPKPKDTLMISRTPEVTCVVVGVSHEDPEVKFNWYVDGVEVHNAKTKPREEQYNSTYRVVSVLTVLHQDWLNGKEYKCKVSNKQLPSPIEKTISKAKGQPREPQVYTLPPSRDELTKNQVSLTCLVKGFYPSDIAVEWESNGQPENNYKTTPPVLDSDGSFFLYSKLTVDKSRWQQGNVFSCSVMHEALHNHYTQKSLSLSPGKSGDIQMTQSPSSLSASVGDRVTITCRASQDIRNYLNWYQQKPGKAPKLLIYYTSRLESGVPSRFSGSGSGTDYTLTISSLQPEDFATYYCQQGNTLPWTFGQGTKVEIKGGGGSGGGGSGGGGSEVQLVESGGGLVQPGGSLRLSCAASGYSFTGYTMNWVRQAPGKGLEWVALINPYKGVSTYNQKFKDRFTISVDKSKNTAYLQMNSLRAEDTAVYYCARSGYYGDSDWYFDVWGQGTLVTVSS
light: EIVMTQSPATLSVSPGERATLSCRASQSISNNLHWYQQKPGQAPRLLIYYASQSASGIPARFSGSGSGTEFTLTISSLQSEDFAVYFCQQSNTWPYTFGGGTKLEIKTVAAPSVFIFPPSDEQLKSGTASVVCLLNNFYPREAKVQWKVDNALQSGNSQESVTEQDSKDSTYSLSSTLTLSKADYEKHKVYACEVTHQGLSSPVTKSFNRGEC
notes: also called Version 3; Humanized 4G8 FLT3 variable region Variant 3 with V6 CD3 scFv

Residue numbers refer to the chain shown, from its start.

T2 sequence (P07766 23-207): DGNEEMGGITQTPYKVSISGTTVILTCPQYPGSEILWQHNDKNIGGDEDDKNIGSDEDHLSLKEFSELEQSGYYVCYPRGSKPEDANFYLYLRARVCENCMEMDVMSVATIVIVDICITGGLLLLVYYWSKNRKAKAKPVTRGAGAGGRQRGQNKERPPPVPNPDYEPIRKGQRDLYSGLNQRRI

The first experiment addresses T2, CD3 as expressed on Jurkat cells (CD3+) (human, UniProt P07766 23-207).
T2 construct: whole, on cells; CD3 is a complex of several chains; also called Jurkat cells expressing CD3
The experiment in a line: flow cytometry on CD3+ Jurkat cells; value told of the CD3 binding part shared by V1 to V5.
As for B1, the EC50 is around 10 nM.

B2 showed an EC50 of around 10 nM.

The molecule B3 yielded an EC50 of around 10 nM.

In the case of B4, the concentration for a half-maximal effect (EC50) is around 10 nM.

The target of another experiment is T1, His tagged, recombinant FLT3 protein …. The experiment in a line: SPR (Biacore X); antibody captured on protein A chip, His-tagged FLT3 in solution.
As to B1, the Kd was found to be 88000 nM, the koff worked out at 0.0318 s⁻¹ and the kon was 540 M⁻¹ s⁻¹.

Take B2: the Kd stood at 160 nM, the koff was found to be 0.00449 s⁻¹ and the kon was determined as 29600 M⁻¹ s⁻¹.

For B3, the dissociation constant (Kd) stood at 63000 nM, the dissociation rate constant (koff) worked out at 0.022 s⁻¹ and the kon came to 489 M⁻¹ s⁻¹.

On to B4, for which the Kd is 87000 nM, the dissociation rate constant (koff) turned out to be 0.0233 s⁻¹ and the kon amounted to 276 M⁻¹ s⁻¹.
